Source: patent publication US20240279325A1 (Chugai, published 2024)

T1: human FcγRIIa type H (allotype H131) extracellular domain with C-terminal His tag (human, UniProt P12318 34-217)
T1 construct: extracellular domain; also called FcγRIIaH; not shown: His tag at the C terminus
T1 sequence (looked up): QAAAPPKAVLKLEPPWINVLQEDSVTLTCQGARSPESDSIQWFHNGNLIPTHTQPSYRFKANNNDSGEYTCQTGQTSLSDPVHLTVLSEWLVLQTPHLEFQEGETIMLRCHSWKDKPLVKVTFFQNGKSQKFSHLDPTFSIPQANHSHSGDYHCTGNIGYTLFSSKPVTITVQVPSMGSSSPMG

T2: FcγRIIa type R (allotype R131) extracellular domain with C-terminal His tag (human, UniProt P12318 34-217)
T2 construct: extracellular domain; also called FcγRIIaR; FcγRIIa R type
T2 sequence (looked up): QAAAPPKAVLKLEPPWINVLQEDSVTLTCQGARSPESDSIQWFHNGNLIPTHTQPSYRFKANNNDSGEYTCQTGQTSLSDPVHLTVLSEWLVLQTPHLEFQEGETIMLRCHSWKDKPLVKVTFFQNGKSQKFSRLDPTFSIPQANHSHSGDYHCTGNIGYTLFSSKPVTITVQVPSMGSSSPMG

T3: FcγRIIb extracellular domain with C-terminal His tag (human, UniProt P31994 43-217)
T3 construct: extracellular domain
T3 sequence (looked up): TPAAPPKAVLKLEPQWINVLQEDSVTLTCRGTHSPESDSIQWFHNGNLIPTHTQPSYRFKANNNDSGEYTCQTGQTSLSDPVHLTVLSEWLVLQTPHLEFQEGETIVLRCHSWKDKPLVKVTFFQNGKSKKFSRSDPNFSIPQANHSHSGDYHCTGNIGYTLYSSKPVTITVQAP


How the values were obtained:
[1] = biological target: T1, human FcγRIIa type H (allotype H131) …; assay: SPR (Biacore), antibody captured, FcγR analyte
[2] = biological target: T2, FcγRIIa type R (allotype R131) …; assay: SPR; KD of IL6R-B3/IL6R-L divided by KD of the variant
[3] = biological target: T3, FcγRIIb extracellular domain with …; assay: as above
[4] = biological target: T3, FcγRIIb extracellular domain with …; assay: SPR; KD for FcγRIIaR divided by KD for FcγRIIb
[5] = biological target: T3, FcγRIIb extracellular domain with …; assay: SPR; KD for FcγRIIaH divided by KD for FcγRIIb

Row | Kd [1] | KD(IIaR) OF PARENT POLYPEPTIDE/KD(IIaR) OF ALTERED POLYPEPTIDE [2] | KD(IIb) OF PARENT POLYPEPTIDE/KD(IIb) OF ALTERED POLYPEPTIDE [3] | KD(IIaR)/KD(IIb) [4] | KD(IIaH)/KD(IIb) [5] | Binder
1 | 93 µM |  |  |  |  | IL6R-BP186/IL6R-L (antibody, human IgG1, kappa, name in EU numbering, EU numbering; copies: 2 + 2) heavy: QVQLQESGPGLVKPSETLSLTCAVSGHSISHDHAWSWVRQPPGEGLEWIGFISYSGITNYNPSLQGRVTISRDNSKNTLYLQMNSLRAEDTAVYYCARSLARTTAMDYWGEGTLVTVSSASTKGPSVFPLAPSSKSTSGGTAALGCLVKDYFPEPVTVSWNSGALTSGVHTFPAVLQSSGLYSLSSVVTVPSSSLGTQTYICNVNHKPSNTKVDKKVEPKSCDKTHTCPPCPAPDYLGDDSVFLFPPKPKDTLMISRTPEVTCVVVDVSHEDGEVKFNWYVDGVEVHNAKTKPREEQDNSTYRVVSVLTVLHQDWLNGKEYKCKVSNAALPKPIEKTISKAKGQPREPQVYTLPPSRDELTKNQVSLTCLVKGFYPSDIAVEWESNGQPENNYKTTPPVLDSDGSFFLYSKLTVDKSRWQQGNVFSCSVMHEALHNHYTQESLSLSP light: not shown
2 | 83 µM |  |  |  |  | IL6R-BP208/IL6R-L (antibody, human IgG1, kappa, name in EU numbering, EU numbering; copies: 2 + 2) heavy: QVQLQESGPGLVKPSETLSLTCAVSGHSISHDHAWSWVRQPPGEGLEWIGFISYSGITNYNPSLQGRVTISRDNSKNTLYLQMNSLRAEDTAVYYCARSLARTTAMDYWGEGTLVTVSSASTKGPSVFPLAPSSKSTSGGTAALGCLVKDYFPEPVTVSWNSGALTSGVHTFPAVLQSSGLYSLSSVVTVPSSSLGTQTYICNVNHKPSNTKVDKKVEPKSCDKTHTCPPCPAPDLLGDDSVFLFPPKPKDTLMISRTPEVTCVVVDVSDEDGEVKFNWYVDGVEVHNAKTKPREEQYNSTYRVVSVLTVLHQDWLNGKEYKCKVSNKALPRPIEKTISKAKGQPREPQVYTLPPSRDELTKNQVSLTCLVKGFYPSDIAVEWESNGQPENNYKTTPPVLDSDGSFFLYSKLTVDKSRWQQGNVFSCSVMHEALHNHYTQESLSLSP light: not shown
3 | 92 µM |  |  |  |  | IL6R-BP214/IL6R-L (antibody, human IgG1, kappa, name in EU numbering, EU numbering; copies: 2 + 2) heavy: QVQLQESGPGLVKPSETLSLTCAVSGHSISHDHAWSWVRQPPGEGLEWIGFISYSGITNYNPSLQGRVTISRDNSKNTLYLQMNSLRAEDTAVYYCARSLARTTAMDYWGEGTLVTVSSASTKGPSVFPLAPSSKSTSGGTAALGCLVKDYFPEPVTVSWNSGALTSGVHTFPAVLQSSGLYSLSSVVTVPSSSLGTQTYICNVNHKPSNTKVDKKVEPKSCDKTHTCPPCPAPDYLGDDSVFLFPPKPKDTLMISRTPEVTCVVVDVSHEDPEVKFNWYVDGVEVHNAKTKPREEQDNSTYRVVSVLTVLHQDWLNGKEYKCKVSNDALPKPIEKTISKAKGQPREPQVYTLPPSRDELTKNQVSLTCLVKGFYPSDIAVEWESNGQPENNYKTTPPVLDSDGSFFLYSKLTVDKSRWQQGNVFSCSVMHEALHNHYTQESLSLSP light: not shown
4 |  | 19.4 | 1810 | 33.2 | 503 | IL6R-BP503/IL6R-L (antibody, human IgG1, kappa, name in EU numbering, copies: 2 + 2) heavy: QVQLQESGPGLVKPSETLSLTCAVSGHSISHDHAWSWVRQPPGEGLEWIGFISYSGITNYNPSLQGRVTISRDNSKNTLYLQMNSLRAEDTAVYYCARSLARTTAMDYWGEGTLVTVSSASTKGPSVFPLAPSSKSTSGGTAALGCLVKDYFPEPVTVSWNSGALTSGVHTFPAVLQSSGLYSLSSVVTVPSSSLGTQTYICNVNHKPSNTKVDKKVEPKSCDKTHTCPPCPAPDLLGDDSVFLFPPKPKDTLMISRTPEVTCVVIDVAEEDGEVKFNWYVDGVEVHNAKTKPREEQDNSTYRVVSVLTVLHQDWLNGKEYKCKVSNKGLPRPIEKTISKAKGQPREPQVYTLPPSRDELTKNQVSLTCLVKGFYPSDIAVEWESNGQPENNYKTTPMVLDSDGSFFLYSKLTVDKSRWQQGNVFSCSVMHEALHNHYTQESLSLSP light: not shown
5 | 69 µM |  |  |  |  | IL6R-BP201/IL6R-L (antibody, human IgG1, kappa, name in EU numbering, EU numbering; copies: 2 + 2) heavy: QVQLQESGPGLVKPSETLSLTCAVSGHSISHDHAWSWVRQPPGEGLEWIGFISYSGITNYNPSLQGRVTISRDNSKNTLYLQMNSLRAEDTAVYYCARSLARTTAMDYWGEGTLVTVSSASTKGPSVFPLAPSSKSTSGGTAALGCLVKDYFPEPVTVSWNSGALTSGVHTFPAVLQSSGLYSLSSVVTVPSSSLGTQTYICNVNHKPSNTKVDKKVEPKSCDKTHTCPPCPAPDLLGDDSVFLFPPKPKDTLMISRTPEVTCVVVDVSHEDGEVKFNWYVDGVEVHNAKTKPREEQYNSTYRVVSVLTVLHQDWLNGKEYKCKVSNKALPRPIEKTISKAKGQPREPQVYTLPPSRDELTKNQVSLTCLVKGFYPSDIAVEWESNGQPENNYKTTPPVLDSDGSFFLYSKLTVDKSRWQQGNVFSCSVMHEALHNHYTQESLSLSP light: not shown
6 |  | 2.6 | 145 | 20 | 514 | IL6R-BP505/IL6R-L (antibody, human IgG1, kappa, name in EU numbering, copies: 2 + 2) heavy: QVQLQESGPGLVKPSETLSLTCAVSGHSISHDHAWSWVRQPPGEGLEWIGFISYSGITNYNPSLQGRVTISRDNSKNTLYLQMNSLRAEDTAVYYCARSLARTTAMDYWGEGTLVTVSSASTKGPSVFPLAPSSKSTSGGTAALGCLVKDYFPEPVTVSWNSGALTSGVHTFPAVLQSSGLYSLSSVVTVPSSSLGTQTYICNVNHKPSNTKVDKKVEPKSCDKTHTCPPCPAPDLLGDDSVFLFPPKPKDTLMISRTPEVTCVVIDVAEEDGDVKFNWYVDGVEVHNAKTKPREEQYNSTYRVVSVLTVLHQDWLNGKEYKCKVSNKALPAPIEKTISKAKGQPREPQVYTLPPSRDELTKNQVSLTCLVKGFYPSDIAVEWESNGQPENNYKTTPPVLDSDGSFFLYSKLTVDKSRWQQGNVFSCSVMHEALHNHYTQESLSLSP light: not shown
7 | 85 µM |  |  |  |  | IL6R-BP194/IL6R-L (antibody, human IgG1, kappa, name in EU numbering, EU numbering; copies: 2 + 2) heavy: QVQLQESGPGLVKPSETLSLTCAVSGHSISHDHAWSWVRQPPGEGLEWIGFISYSGITNYNPSLQGRVTISRDNSKNTLYLQMNSLRAEDTAVYYCARSLARTTAMDYWGEGTLVTVSSASTKGPSVFPLAPSSKSTSGGTAALGCLVKDYFPEPVTVSWNSGALTSGVHTFPAVLQSSGLYSLSSVVTVPSSSLGTQTYICNVNHKPSNTKVDKKVEPKSCDKTHTCPPCPAPDYLGDDSVFLFPPKPKDTLMISRTPEVTCVVVDVSDEDGEVKFNWYVDGVEVHNAKTKPREEQYNSTYRVVSVLTVLHQDWLNGKEYKCKVSNAALPKPIEKTISKAKGQPREPQVYTLPPSRDELTKNQVSLTCLVKGFYPSDIAVEWESNGQPENNYKTTPPVLDSDGSFFLYSKLTVDKSRWQQGNVFSCSVMHEALHNHYTQESLSLSP light: not shown
8 |  | 2.1 | 174 | 29.2 | 444 | IL6R-BP509/IL6R-L (antibody, human IgG1, kappa, name in EU numbering, copies: 2 + 2) heavy: QVQLQESGPGLVKPSETLSLTCAVSGHSISHDHAWSWVRQPPGEGLEWIGFISYSGITNYNPSLQGRVTISRDNSKNTLYLQMNSLRAEDTAVYYCARSLARTTAMDYWGEGTLVTVSSASTKGPSVFPLAPSSKSTSGGTAALGCLVKDYFPEPVTVSWNSGALTSGVHTFPAVLQSSGLYSLSSVVTVPSSSLGTQTYICNVNHKPSNTKVDKKVEPKSCDKTHTCPPCPAPDLLGDDSVFLFPPKPKDTLMISRTPEVTCVVIDVAEEDGDVKFNWYVDGVEVHNAKTKPREEQDNSTYRVVSVLTVLHQDWLNGKEYKCKVSNKALPAPIEKTISKAKGQPREPQVYTLPPSRDELTKNQVSLTCLVKGFYPSDIAVEWESNGQPENNYKTTPPVLDSDGSFFLYSKLTVDKSRWQQGNVFSCSVMHEALHNHYTQESLSLSP light: not shown
9 |  | 6.3 | 891 | 50.6 | 1240 | IL6R-BP511/IL6R-L (antibody, human IgG1, kappa, name in EU numbering, copies: 2 + 2) heavy: QVQLQESGPGLVKPSETLSLTCAVSGHSISHDHAWSWVRQPPGEGLEWIGFISYSGITNYNPSLQGRVTISRDNSKNTLYLQMNSLRAEDTAVYYCARSLARTTAMDYWGEGTLVTVSSASTKGPSVFPLAPSSKSTSGGTAALGCLVKDYFPEPVTVSWNSGALTSGVHTFPAVLQSSGLYSLSSVVTVPSSSLGTQTYICNVNHKPSNTKVDKKVEPKSCDKTHTCPPCPAPELLGDDSVFLFPPKPKDTLMISRTPEVTCVVIDVAEEDGPVKFNWYVDGVEVHNAKTKPREEQDNSTYRVVSVLTVLHQDWLNGKEYKCKVSNKALPRPIEKTISKAKGQPREPQVYTLPPSRDELTKNQVSLTCLVKGFYPSDIAVEWESNGQPENNYKTTPPVLDSDGSFFLYSKLTVDKSRWQQGNVFSCSVMHEALHNHYTQESLSLSP light: not shown
10 |  | 2 | 149 | 26 | 962 | IL6R-BP508/IL6R-L (antibody, human IgG1, kappa, name in EU numbering, copies: 2 + 2) heavy: QVQLQESGPGLVKPSETLSLTCAVSGHSISHDHAWSWVRQPPGEGLEWIGFISYSGITNYNPSLQGRVTISRDNSKNTLYLQMNSLRAEDTAVYYCARSLARTTAMDYWGEGTLVTVSSASTKGPSVFPLAPSSKSTSGGTAALGCLVKDYFPEPVTVSWNSGALTSGVHTFPAVLQSSGLYSLSSVVTVPSSSLGTQTYICNVNHKPSNTKVDKKVEPKSCDKTHTCPPCPAPDLLGDDSVFLFPPKPKDTLMISRTPEVTCVVIDVAEEDGPVKFNWYVDGVEVHNAKTKPREEQDNSTYRVVSVLTVLHQDWLNGKEYKCKVSNKALPAPIEKTISKAKGQPREPQVYTLPPSRDELTKNQVSLTCLVKGFYPSDIAVEWESNGQPENNYKTTPPVLDSDGSFFLYSKLTVDKSRWQQGNVFSCSVMHEALHNHYTQESLSLSP light: not shown
